Measured values as given in patent publication US20080026996A1, “Selective Vpac2 Receptor Reptide Agonists” (ELI LILLY AND COMPANY, priority 2004, published 2008).
Where no end group is shown, it is not given here. [ ]: non-standard residue; d: D form. The star is where a group is joined. Hexanoyl = CCCCCC(=O)*; Aib = CC(C)(N)C(=O)O

B1: P335 (peptide)
peptide: HSDAVFTDNYTXLRXQVAAXKYLQSIXXGGPSSGAPPPS
modifications: N-terminal hexanoyl (C6); Orn at 12; Aib at 15, 20; hR at 27, 28
B2: P135 (peptide)
peptide: Hexanoyl-HSDAVFTDNYTRLLAKVAAKKYLQSIKNKRYGGPSSGAPPPS
B3: P177 (peptide)
peptide: Hexanoyl-HSDAVFTDNYTRLRQQVAAKKYLQSIKNKRYGGPSSGAPPPS
B4: P222 (peptide)
peptide: Hexanoyl-HGEGTFTDNYTRLRKQVAAKKYLQSIKNKRYGGPSSGAPPPS
B5: P172 (peptide)
peptide: Hexanoyl-HSDAVFTDNYTRLQKQVAAKKYLQSIKNKRYGGPSSGAPPPS
B6: P150 (peptide)
peptide: Hexanoyl-HSDAVFTDNYTRLRKQVAAQKYLQSIKNKRYGGPSSGAPPPS
B7: P168 (peptide)
peptide: Hexanoyl-HSDAVFTDNYTRLR[Aib]QVAAKKYLQSIKNKRYGGPSSGAPPPS
modifications: ends and bridges not checked
B8: P240 (peptide)
peptide: Hexanoyl-HSDAVFTDNYTRL[Aib]KQLAA[Aib]KYLQSIKNKRYGGPSSGAPPPS
modifications: ends and bridges not checked
B9: P242 (peptide)
peptide: Hexanoyl-HSDAVFTDNYTRL[Aib]KQVAA[Aib]KYLQSIKNKRYGGPSSGAPPPS
modifications: ends and bridges not checked
B10: P244 (peptide)
peptide: Hexanoyl-HSDAVFTDNYTRL[Aib]KQVAAK[Aib]YLQSIKNKRYGGPSSGAPPPS
modifications: ends and bridges not checked
B11: P170 (peptide)
peptide: Hexanoyl-HSDAVFTDNYTRLRKQVAAK[Aib]YLQSIKNKRYGGPSSGAPPPS
modifications: ends and bridges not checked
B12: P167 (peptide)
peptide: Hexanoyl-HSDAVFTDNYTRL[Aib]KQVAAKKYLQSIKNKRYGGPSSGAPPPS
modifications: ends and bridges not checked
B13: P243 (peptide)
peptide: Hexanoyl-HSDAVFTDNYTRL[Aib]KQVAAQKYLQSIKNKRYGGPSSGAPPPS
modifications: ends and bridges not checked
B14: P169 (peptide)
peptide: Hexanoyl-HSDAVFTDNYTRLRKQVAA[Aib]KYLQSIKNKRYGGPSSGAPPPS
modifications: ends and bridges not checked
B15: P329 (peptide)
peptide: HSDAVFTDNYTXLRXQVAAXKYLQSIXNXGGPSSGAPPPS
modifications: N-terminal hexanoyl (C6); hR at 12, 27, 29; Aib at 15, 20

Target: T1, human VPAC2 receptor (human, UniProt P41587 24-438)
T1 sequence (looked up): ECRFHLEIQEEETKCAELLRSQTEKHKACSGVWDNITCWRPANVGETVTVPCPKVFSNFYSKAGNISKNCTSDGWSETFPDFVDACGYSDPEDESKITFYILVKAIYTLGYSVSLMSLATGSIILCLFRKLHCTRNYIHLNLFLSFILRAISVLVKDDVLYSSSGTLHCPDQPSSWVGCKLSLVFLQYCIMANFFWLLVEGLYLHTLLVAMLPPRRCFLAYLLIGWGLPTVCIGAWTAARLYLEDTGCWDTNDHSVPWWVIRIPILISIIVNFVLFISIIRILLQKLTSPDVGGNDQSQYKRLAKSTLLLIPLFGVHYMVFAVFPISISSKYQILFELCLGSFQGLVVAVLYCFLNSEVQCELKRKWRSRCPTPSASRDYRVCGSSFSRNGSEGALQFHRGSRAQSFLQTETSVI
Experiment: cell-based or functional assay

Binder | EC50 cAMP, Alpha Screen [nM]
B1 | 0.22
B2 | 0.18
B3 | 0.21
B4 | 0.51
B5 | 0.29
B6 | 0.18
B7 | 0.27
B8 | 0.51
B9 | 0.8
B10 | 2.03
B11 | 0.18
B12 | 0.17
B13 | 0.28
B14 | 0.14

Target: T2, rat VPAC1 receptor (rat, UniProt P30083 31-459)
T2 sequence (looked up): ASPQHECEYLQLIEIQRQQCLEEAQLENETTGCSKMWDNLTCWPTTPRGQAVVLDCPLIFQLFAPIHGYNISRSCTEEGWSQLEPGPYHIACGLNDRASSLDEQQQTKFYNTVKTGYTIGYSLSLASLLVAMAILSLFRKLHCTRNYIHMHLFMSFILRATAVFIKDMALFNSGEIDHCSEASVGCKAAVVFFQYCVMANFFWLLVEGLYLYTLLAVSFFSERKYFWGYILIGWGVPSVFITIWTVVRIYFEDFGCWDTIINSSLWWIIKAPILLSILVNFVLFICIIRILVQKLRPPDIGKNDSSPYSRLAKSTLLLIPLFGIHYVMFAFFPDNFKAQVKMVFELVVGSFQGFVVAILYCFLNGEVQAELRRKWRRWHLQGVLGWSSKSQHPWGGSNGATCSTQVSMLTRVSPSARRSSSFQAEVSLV
Experiment: cell-based or functional assay

Binder | EC50 cAMP, DiscoveRx [nM]
B4 | 43.9
B8 | 24.5
B9 | 72.2
B10 | 127
B12 | 6.88
B13 | 157
B14 | 1.32

Target: T3, rat VPAC2 receptor (rat, UniProt P35000 23-437)
T3 sequence (looked up): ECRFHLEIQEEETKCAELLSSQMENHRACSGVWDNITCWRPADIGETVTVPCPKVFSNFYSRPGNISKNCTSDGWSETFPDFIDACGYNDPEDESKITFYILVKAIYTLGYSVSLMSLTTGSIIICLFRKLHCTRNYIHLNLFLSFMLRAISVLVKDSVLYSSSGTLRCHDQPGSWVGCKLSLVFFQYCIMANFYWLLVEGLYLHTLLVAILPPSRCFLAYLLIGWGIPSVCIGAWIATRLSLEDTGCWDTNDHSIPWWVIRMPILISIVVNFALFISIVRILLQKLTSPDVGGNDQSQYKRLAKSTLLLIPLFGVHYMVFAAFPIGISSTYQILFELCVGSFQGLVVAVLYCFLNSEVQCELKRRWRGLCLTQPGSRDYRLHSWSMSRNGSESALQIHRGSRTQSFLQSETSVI
Experiment: cell-based or functional assay

Binder | EC50 cAMP, DiscoveRx [nM]
B1 | 0.05
B2 | 0.05
B3 | 0.1
B4 | 34.9
B5 | 0.11
B6 | 0.1
B7 | 0.05
B15 | 0.15
B8 | 0.36
B9 | 0.46
B10 | 1.85
B11 | 0.15
B12 | 0.24
B13 | 0.79
B14 | 0.07
